Reference: US20220324978A1 (BIOCYTOGEN PHARMACEUTICALS BEIJING, published 2022)
Residue numbers refer to the chain shown, from its start. One block for each binder: values may come before it.

How the values were obtained:
[1] = target: T1, canine PD-1 (on transfected CHO cells) (canine); test: flow cytometry blocking assay on CHO cells transiently transfected with canine PD-1; antibody at 0.5 µg/mL; blocked ligand biotin-labeled dPD-L1 (5 µg/ml), detected with Streptavidin-PE
T1 construct: also called dPD-1
T1 chain: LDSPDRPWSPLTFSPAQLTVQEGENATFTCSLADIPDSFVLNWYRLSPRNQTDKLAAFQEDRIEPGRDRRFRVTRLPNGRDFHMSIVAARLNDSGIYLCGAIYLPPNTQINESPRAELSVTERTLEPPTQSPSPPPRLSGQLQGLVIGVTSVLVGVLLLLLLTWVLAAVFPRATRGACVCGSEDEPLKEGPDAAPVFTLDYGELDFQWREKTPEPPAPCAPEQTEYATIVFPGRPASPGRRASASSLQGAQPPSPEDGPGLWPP
Protocol: (§1) The anti-dPD-1 chimeric antibodies were collected from mouse ascites fluid and purified by chromatography. 25 μl CHO cells transiently transfected with canine PD-1 were added to each well in a plate. The purified antibodies were titrated to the desired final concentrations, and were added to each well at 25 μl per well at 4° C. and incubated for 30 minutes.
(§2) After being washed with phosphate-buffered saline (PBS) twice (1200 rpm, 5 minutes), 50 μl of PE-labeled Streptavidin (Streptavidin-PE) at 1:100 dilution was added into each well, and incubated for 30 minutes at 4° C., followed by PBS wash (1200 rpm, 5 minutes). 20 μl of PBS was added. The signals for PE was detected by flow cytometry (Intellicyt).

[2] = target: T1, canine PD-1 (on transfected CHO cells); test: flow cytometry blocking assay on CHO cells transiently transfected with canine PD-1; antibody at 0.005 µg/mL; blocked ligand biotin-labeled dPD-L1 (5 µg/ml), detected with Streptavidin-PE
Protocol: as §1, §2

[3] = target: T1, canine PD-1 (on transfected CHO cells); test: flow cytometry blocking assay on CHO cells transiently transfected with canine PD-1; antibody at 5 µg/mL; blocked ligand biotin-labeled dPD-L1 (5 µg/ml), detected with Streptavidin-PE
Protocol: as §1, §2

[4] = target: T1, canine PD-1 (on transfected CHO cells); test: flow cytometry blocking assay on CHO cells transiently transfected with canine PD-1; antibody at 0.05 µg/mL; blocked ligand biotin-labeled dPD-L1 (5 µg/ml), detected with Streptavidin-PE
Protocol: as §1, §2

[5] = target: T2, feline PD-1 (on transfected CHO cells) (feline); test: flow cytometry (MFI) on CHO cells with feline PD-1 and EGFP
T2 construct: Expressed from a vector that also expresses EGFP; also called cPD-1
T2 chain: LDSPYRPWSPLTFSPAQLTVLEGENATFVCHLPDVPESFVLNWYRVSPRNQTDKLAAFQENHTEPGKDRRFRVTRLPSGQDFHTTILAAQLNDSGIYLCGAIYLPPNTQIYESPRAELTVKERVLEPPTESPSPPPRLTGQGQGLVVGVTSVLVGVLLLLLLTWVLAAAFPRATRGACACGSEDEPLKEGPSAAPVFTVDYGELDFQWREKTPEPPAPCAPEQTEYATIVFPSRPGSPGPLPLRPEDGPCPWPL
Protocol: In FIG. 9, the CHO cells were transfected with an expression vector that expresses feline PD-1 and EGFP. 25 μl purified anti-dPD-1 chimeric antibodies with different concentrations were added to each well. After being washed with PBS (1200 rmp, 5 min) twice, 50 μl of Alexa Fluor 647 labeled anti-dog IgG Fc antibody (anti-dIgG Fc-647) was added into each well at 1:500 dilution, followed by incubating at 4° C. for 30 minutes, and then PBS wash (1200 rmp, 5 min). 30 μl of PBS was then added. […] EC50 were also determined from the data.

[6] = target: T1, canine PD-1 (on transfected CHO cells); test: flow cytometry (MFI) on CHO cells with canine PD-1
Protocol: 25 μl CHO cells were added to each well.
30 μl of PBS was then added.

[7] = target: T3, human PD-1 (on transfected CHO cells) (human, UniProt Q15116 25-288); test: flow cytometry on CHO-hPD-1 cells; Anti-dog-IgG Fc-FITC (1:100)
T3 construct: also called hPD-1
Protocol: After being washed with PBS (1200 rmp, 5 min) twice, FITC labeled anti-dog IgG Fc antibody (anti-dIgG Fc-FITC) was added into each well 1:100 dilution, followed by incubating at 4° C. for 30 minutes, and then PBS wash (1200 rmp, 5 min). The signals for FITC were determined by flow cytometry.

T3 sequence (Q15116 25-288 limits assumed): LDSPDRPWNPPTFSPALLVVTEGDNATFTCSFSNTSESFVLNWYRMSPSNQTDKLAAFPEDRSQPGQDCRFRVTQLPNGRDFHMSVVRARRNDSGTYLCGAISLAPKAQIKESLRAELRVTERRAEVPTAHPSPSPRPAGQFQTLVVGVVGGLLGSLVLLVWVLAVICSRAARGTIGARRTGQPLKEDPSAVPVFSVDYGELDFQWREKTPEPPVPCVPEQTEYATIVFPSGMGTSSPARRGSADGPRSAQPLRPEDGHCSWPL

percent of cells in the dPD-L1-positive (PE) gate [1]: 4.4% | percent of cells in the dPD-L1-positive (PE) gate [2]: 45.1% | percent of cells in the dPD-L1-positive (PE) gate [3]: 0.504% | percent of cells in the dPD-L1-positive (PE) gate [4]: 47%
B1: 1B9-mHvKv-dIgG4 (antibody, V domains shown)
VH: QVQLQQPGAELVRPGASVKLSCKASGYTFTSFWMNWVKLRPEQGLEWIGRVDPYDSETHYNQKFKDKAILTVDKSSSTAYMQLSSLTSEDSAVYYCATQFGFSWLAYWGQGTLVTVSA
VL: not shown
notes: also called 1B9-mHvKv-IgG4; 1B9-mHvKv-dlgG4

percent of cells in the dPD-L1-positive (PE) gate [1]: 1.7% | percent of cells in the dPD-L1-positive (PE) gate [2]: 34.1% | percent of cells in the dPD-L1-positive (PE) gate [3]: 3.37% | percent of cells in the dPD-L1-positive (PE) gate [4]: 27.1% | EC50 [5]: 1.53 nM | EC50 [6]: 4.81 nM
B2: 4A7-mHvKv-dIgG4 (antibody, V domains shown)
VH: EVQLVESGGDLVKPGGSLKLSCVASGFPFSNFGMSWVRQTPDKRLEWVATISSGSSYSYYSDSVKGRFTISRDNAKNTLFLQMNSLKSEDTAIFYCARGESRFAYWGQGTLVTVSA
VL: DVVITQDELSNPVTSGESVSISCRSNKSLLYEDGQTYLNWFLQRPGQSPQLLIYLMSTRASGVSDRFSGSGSGTDFTLEISEVRAEDVGVYYCQQLIEYPLTFGAGTKLELKR
notes: also called 4A7-mHvKv-IgG4; 4A7-mHvKv-dlgG4

binding result [7]: no binding (tested: 10 µg/ml) | percent of cells in the dPD-L1-positive (PE) gate [1]: 0.161% | percent of cells in the dPD-L1-positive (PE) gate [2]: 39.2% | percent of cells in the dPD-L1-positive (PE) gate [3]: 4.38% | percent of cells in the dPD-L1-positive (PE) gate [4]: 18.8% | EC50 [5]: 7.29 nM
B3: 1D8-mHvKv-dIgG4 (antibody, V domains shown)
VH: B2 VH with V23A, P28T, S30N, T40N, I51L, S58T, F80Y, I93M, F94Y, A97T
VL: B2 VL with D1G, N26S, E32K, Q35K, E82R, R84K
notes: also called 1D8-mHvKv-IgG4; 1D8-mHvKv-dlgG4
